Results taken from patent US20240124539A1, “CROSSLINKED HELIX DIMER MIMICS OF SOS AND METHODS OF USING SAME” (NEW YORK UNIVERSITY, priority 2020, published 2024).
Positions of bridges follow the written chain, without caps; N, C: chain ends. Non-standard residues stand in square brackets, D forms with d. Chains are numbered I, II in the order given. No end group written: not given here. *: point of attachment. dibenzylether crosslinker = scaffold alkylating both cysteine thiols (drawn in Scheme 1 and; FITC = O=C1OC2(c3ccc(O)cc3Oc3cc(O)ccc32)c2ccc(NC(=S)*)cc21; hArg = N=C(N)NCCCC[C@H](N)C(=O)O; βAla = NCCC(=O)O

Tests used:
[1] = target: T1, fluorescently-labeled wild-type H-Ras-GDP (MST), P01112; assay: microscale thermophoresis; AFDye 647-labelled wild-type H-Ras-GDP with serial dilutions of the CHD
[2] = target: T1, fluorescently-labeled wild-type …; assay: microscale thermophoresis, dye-labelled H-Ras-GDP (5-10 nM), CHD titrated
[3] = target: T2, G12V mutant His6-tagged H-Ras (1-166) pre-loaded with GDP, P01112; assay: microscale thermophoresis (column MST); AFDye 647-labelled G12V H-Ras-GDP with serial dilutions of the unlabelled CHD
[4] = target: K-Ras (endogenous, H358 cells) (human), P01116; assay: cell-based or functional assay
[5] = target: KRAS (Homo sapiens), P01116; assay: photoaffinity crosslinking in H358 cells, TMT MS proteomics
[6] = target: KRAS (Homo sapiens), P01116; assay: photoaffinity crosslinking in H358 cells, TMT MS proteomics; vs control probe CP-266
[7] = target: G12D mutant His6-tagged H-Ras (1-166) pre-loaded with GDP, P01112; assay: direct fluorescence polarization (FP); fluorescein-labelled CHD titrated with GDP-loaded His6-H-Ras G12D
[8] = target: G12C mutant His6-tagged H-Ras (1-166) pre-loaded with GDP, P01112; assay: direct fluorescence polarization (FP); fluorescein-labelled CHD titrated with GDP-loaded His6-H-Ras G12C
[9] = target: T2, G12V mutant His6-tagged H-Ras (1-166) …; assay: direct fluorescence polarization (FP); fluorescein-labelled CHD titrated with GDP-loaded His6-H-Ras G12V
[10] = target: T3, wild-type His6-tagged H-Ras (1-166) pre-loaded with GDP, P01112; assay: direct fluorescence polarization (FP); fluorescein-labelled CHD titrated with GDP-loaded His6-H-Ras
[11] = target: T3, wild-type His6-tagged H-Ras (1-166) …; assay: fluorescence polarization, fluorescein-labelled CHD (15 nM), His6-H-Ras-GDP titrated
[12] = target: T3, wild-type His6-tagged H-Ras (1-166) …; assay: direct fluorescence polarization; fluorescein-labelled CHD titrated with GDP-loaded WT H-Ras

B1: CHD^Sos-5 (designed binder)
chain 1: WIGRLCTEI[hArg]RLRNGN
chain 2: Ac-LAWRLRELERELARLC-NH2
modifications: linker I:6-II:16 via dibenzylether crosslinker; not fully specified (N-terminus, C-terminus)
In the case of B1, the EC50 (read off the curve) [1] is reported as 0.2 µM, the Kd [2] is reported as 0.3 µM and the Kd [3] is reported as 2.7 µM. For the same binder, the ERK activation levels (ERK phosphorylation, Western blot, H358 cells) [4] was under 1 µM.

B2: DZ2-CHD^Sos-5 (designed binder)
chain 1: WIGRLCTEIKRLRNGN
chain 2: LAWRLRELERELARLC
modifications: not checked
B2 showed an Average Abundance [5] of 825, a Fold [6] of 6.63 fold and a log2(fold) [6] of 2.73.

B3: FITC-CHD^Sos-5 (designed binder)
chain 1: Ac-WIGRLCTEI[hArg]RLRNGN-NH2
chain 2: {FITC}-[βAla]LAWRLRELERELARLC-NH2
modifications: linker I:6-II:17 via dibenzylether crosslinker
In the case of B3, the Kd [7] is reported as 17.9 µM, the Kd [8] is reported as 16.1 µM and the Kd [9] is reported as 13.4 µM. It also gave a Kd [10] of 1.9 µM and a Kd [11] of 2 µM.

B4: FITC-CHD^Sos-1 (designed binder)
chain 1: Ac-FIGRLCTEILKLREGN-NH2
chain 2: {FITC}-[βAla]LAWRLRELERELARLC
modifications: linker I:6-II:17 via dibenzylether crosslinker; not fully specified (C-terminus)
For B4, the Kd [12] was 32.2 µM and the Kd [11] was 32 µM.
